Biological target: full-length His6-PIPKIγi5 (human, UniProt O60331-3 1-707)
Test: pull-down

binding result: binds
B1: GST-SNX5 (natural protein, UniProt Q9Y5X3 1-404, looked up)
chain: MAAVPELLQQQEEDRSKLRSVSVDLNVDPSLQIDIPDALSERDKVKFTVHTKTTLPTFQSPEFSVTRQHEDFVWLHDTLIETTDYAGLIIPPAPTKPDFDGPREKMQKLGEGEGSMTKEEFAKMKQELEAEYLAVFKKTVSSHEVFLQRLSSHPVLSKDRNFHVFLEYDQDLSVRRKNTKEMFGGFFKSVVKSADEVLFTGVKEVDDFFEQEKNFLINYYNRIKDSCVKADKMTRSHKNVADDYIHTAACLHSLALEEPTVIKKYLLKVAELFEKLRKVEGRVSSDEDLKLTELLRYYMLNIEAAKDLLYRRTKALIDYENSNKALDKARLKSKDVKLAEAHQQECCQKFEQLSESAKEELINFKRKRVAAFRKNLIEMSELEIKHARNNVSLLQSCIDLFKNN
